Results: publication PMC11805909, “Structural basis of inhibition of human NaV1.8 by the tarantula venom peptide Protoxin-I” (Nature Communications, 2025)

Biological target: T1, human NaV1.8 α-subunit (human, UniProt Q9Y5Y9 1-1956, M1713V, N-linked glycosylation modelled at Asn 312, 819, 1312, 1328 and 1336; further sites N284 and N288)
T1 construct: a TEV protease site stands between the N-terminal tags and the channel; No TEV cleavage is described in the purification, so the N-terminal tags were probably still on the protein on the grids; VSDI was not resolved in the maps; also called hNaV1.8; apo-hNaV1.8; source: HEK293 (FreeStyle 293-F), transiently co-transfected with β4; not shown: FLAG, N-terminal, kept
Test: cryo-EM structure; 45 µM ProTx-I incubated 30 min on ice with purified hNaV1.8 in GDN micelles (150 mM NaCl, 25 mM HEPES pH 7.5, 0.006% GDN); excess peptide removed on a 100 kDa MWCO filter; monolayer graphene grids
Details: both partners purified

B1: Protoxin-I (peptide)
peptide: ECRYWLGGCSAGQTCCKHLVCSRRHGWCVWDGTFS
notes: modelled from the NMR ensemble PDB 2M9L; printed residue numbers (R3, W5, L6, S22, R23, W27, V29, W30, D31, G32, F34) count on the peptide; Disulfide-rich (ICK framework); also called ProTx-I; source: bought: Smartox Biotechnology
Question: Does B1 bind?
Answer: Result: binds
